Columns and labels:
[1] = biological target: T1, Human hexa-histidine-TLR3 (human, UniProt O15455 24-703, limits assumed); assay: Biacore 3000, hexa-histidine-TLR3 captured on anti-His antibody, mAb in solution, 25 C, 1:1 model
T1 construct: Captured by anti-His antibody on a CM5 chip; also called TLR3 (captured on the chip surface); not shown: hexa-histidine tag

[2] = biological target: T2, soluble human TLR3 extracellular domain (human, UniProt O15455 24-703); assay: ELISA, coated soluble hTLR3 extracellular domain, HRP-labeled anti-human IgG
T2 construct: also called hTLR3 extracellular domain; extracellular domain of human TLR3

[3] = biological target: T2, soluble human TLR3 extracellular domain; assay: Biacore 2000, mAb captured on protein A, TLR3 in solution, 25 C, 1:1 model
Method: Measurement of binding affinity by Biacore was performed by mAb capture and TLR3 capture techniques. MAb capture analysis was performed at 25° C. using a Biacore 2000 biosensor equipped with a CM5 chip with surfaces modified with protein A (6,000 RU) at 25° C. by standard amine coupling. Antibody was diluted to 30 nM and captured for one minute on different protein A surfaces. TLR3 was injected at 0, 0.1, 0.3, 1.0, 3.0, and 9.0 nM and associations and dissociations were monitored for 5 minutes. The protein A modified surfaces were regenerated using two 6-second pulses 100 mM phosphoric acid. Available binding data sets were fit to a 1:1 interaction model (CLAMP™). The rate constants and their ratio (KD=kd/kₐ) and the error of fit carried over the estimate of the apparent equilibrium constants were calculated.

[4] = biological target: T2, soluble human TLR3 extracellular domain; assay: ELISA, TLR3 binding assay as in Example 20

B1: human-adapted anti-TLR3 mAb HV1/LV1 (antibody, human IgG4, V domains shown)
VH: QVQLVQSGAEVKKPGASVKVSCKASGYTFTTYWIHWVRQAPGQRLEWMGEINPNNGRINYNEKFKTRVTITRDTSASTAYMELSSLRSEDTAVYYCARVGVMITTFPYWGQGTLVTVSS
VL: DIQMTQSPSSLSASVGDRVTITCRASGNIHNYLAWYQQKPGKAPKLLIYNAKTLADGVPSRFSGSGSGTDFTLTISSLQPEDFATYYCQHFWSTPFTFGQGTKLEIK
notes: Human IgG4 (S228P, F234A, L235A), kappa; not shown: human kappa light chain constant region
B1 was tested, and the Kd [1] was 1.7 nM.

B2: human-adapted anti-TLR3 mAb HV5/LV1 (antibody, human IgG4, V domains shown)
VH: QVQLVQSGAEVKKPGASVKVSCKASGYTFTTYWIHWVRQATGQGLEWMGEINPNNGRINYNEKFKTRVTMTRNTSISTAYMELSSLRSEDTAVYYCARVGVMITTFPYWGQGTLVTVSS
VL: DIQMTQSPSSLSASVGDRVTITCRASGNIHNYLAWYQQKPGKAPKLLIYNAKTLADGVPSRFSGSGSGTDFTLTISSLQPEDFATYYCQHFWSTPFTFGQGTKLEIK
notes: as for B1
For B2, the EC50 [2] was 0.0155 µg/mL, the Kd [1] was 0.65 nM and the Kd [3] was 2 nM.

B3: human-adapted anti-TLR3 mAb HV7/LV5 (antibody, human IgG4, V domains shown)
VH: QVQLVQSGAEVKKPGSSVKVSCKASGGTFSTYWIHWVRQAPGQGLEWMGEINPNNGRINYNEKFKTRVTITADESTSTAYMELSSLRSEDTAVYYCARVGVMITTFPYWGRGTLVTVSS
VL: DIQMTQSPSSLSASVGDRVTITCRASGNIHNYLAWYQQKPGKVPKLLIYNAKTLADGVPSRFSGSGSGTDFTLTISSLQPEDVATYYCQHFWSTPFTFGGGTKVEIK
notes: as for B1
Work on B3 yielded an EC50 [2] of 1.82 µg/mL.

B4: human-adapted anti-TLR3 mAb HV4/LV5 (antibody, human IgG4, V domains shown)
VH: QVQLVQSGAEVKKPGASVKVSCKASGYTFTTYWIHWVRQAPGQGLEWMGEINPNNGRINYNEKFKTRVTMTRDTSISTAYMELSRLRSDDTAVYYCARVGVMITTFPYWGQGTLVTVSS
VL: DIQMTQSPSSLSASVGDRVTITCRASGNIHNYLAWYQQKPGKVPKLLIYNAKTLADGVPSRFSGSGSGTDFTLTISSLQPEDVATYYCQHFWSTPFTFGGGTKVEIK
notes: as for B1
B4 showed an EC50 [2] of 0.0187 µg/mL.

B5: human-adapted C1068 variant mAb HBV3 (Vh CDR2 N61A in the HV1/LV1 background) (antibody, V domains shown)
VH: QVQLVQSGAEVKKPGASVKVSCKASGYTFTTYWIHWVRQAPGQRLEWMGEINPNNGRINYAEKFKTRVTITRDTSASTAYMELSSLRSEDTAVYYCARVGVMITTFPYWGQGTLVTVSS
VL: DIQMTQSPSSLSASVGDRVTITCRASGNIHNYLAWYQQKPGKAPKLLIYNAKTLADGVPSRFSGSGSGTDFTLTISSLQPEDFATYYCQHFWSTPFTFGQGTKLEIK
notes: Made in the HV1/LV1 background; not shown: human kappa light chain constant region
B5 showed an EC50 [4] of 0.048 µg/mL.

B6: human-adapted anti-TLR3 mAb HV7/LV1 (antibody, human IgG4, V domains shown)
VH: QVQLVQSGAEVKKPGSSVKVSCKASGGTFSTYWIHWVRQAPGQGLEWMGEINPNNGRINYNEKFKTRVTITADESTSTAYMELSSLRSEDTAVYYCARVGVMITTFPYWGRGTLVTVSS
VL: DIQMTQSPSSLSASVGDRVTITCRASGNIHNYLAWYQQKPGKAPKLLIYNAKTLADGVPSRFSGSGSGTDFTLTISSLQPEDFATYYCQHFWSTPFTFGQGTKLEIK
notes: as for B1
B6 was tested, and the EC50 [2] was 1.47 µg/mL.

B7: human-adapted anti-TLR3 mAb HV1/LV3 (antibody, human IgG4, V domains shown)
VH: QVQLVQSGAEVKKPGASVKVSCKASGYTFTTYWIHWVRQAPGQRLEWMGEINPNNGRINYNEKFKTRVTITRDTSASTAYMELSSLRSEDTAVYYCARVGVMITTFPYWGQGTLVTVSS
VL: DIQMTQSPSSLSASVGDRVTITCRASGNIHNYLAWYQQKPGKAPKRLIYNAKTLADGVPSRFSGSGSGTEFTLTISSLQPEDFATYYCQHFWSTPFTFGQGTKLEIK
notes: as for B1
For B7, the EC50 [2] was 0.118 µg/mL.

B8: human-adapted C1068 variant mAb HBV5 (Vh CDR3 M102I in the HV1/LV1 background) (antibody, V domains shown)
VH: QVQLVQSGAEVKKPGASVKVSCKASGYTFTTYWIHWVRQAPGQRLEWMGEINPNNGRINYNEKFKTRVTITRDTSASTAYMELSSLRSEDTAVYYCARVGVIITTFPYWGQGTLVTVSS
VL: DIQMTQSPSSLSASVGDRVTITCRASGNIHNYLAWYQQKPGKAPKLLIYNAKTLADGVPSRFSGSGSGTDFTLTISSLQPEDFATYYCQHFWSTPFTFGQGTKLEIK
notes: as for B5
Work on B8 yielded an EC50 [4] of 0.0747 µg/mL.

B9: human-adapted anti-TLR3 mAb HV5/LV5 (antibody, human IgG4, V domains shown)
VH: QVQLVQSGAEVKKPGASVKVSCKASGYTFTTYWIHWVRQATGQGLEWMGEINPNNGRINYNEKFKTRVTMTRNTSISTAYMELSSLRSEDTAVYYCARVGVMITTFPYWGQGTLVTVSS
VL: DIQMTQSPSSLSASVGDRVTITCRASGNIHNYLAWYQQKPGKVPKLLIYNAKTLADGVPSRFSGSGSGTDFTLTISSLQPEDVATYYCQHFWSTPFTFGGGTKVEIK
notes: as for B1
B9 gave an EC50 [2] of 0.0137 µg/mL, a Kd [1] of 0.7 nM and a Kd [3] of 1.1 nM.

B10: human-adapted anti-TLR3 mAb HV4/LV3 (antibody, human IgG4, V domains shown)
VH: QVQLVQSGAEVKKPGASVKVSCKASGYTFTTYWIHWVRQAPGQGLEWMGEINPNNGRINYNEKFKTRVTMTRDTSISTAYMELSRLRSDDTAVYYCARVGVMITTFPYWGQGTLVTVSS
VL: DIQMTQSPSSLSASVGDRVTITCRASGNIHNYLAWYQQKPGKAPKRLIYNAKTLADGVPSRFSGSGSGTEFTLTISSLQPEDFATYYCQHFWSTPFTFGQGTKLEIK
notes: as for B1
B10 showed an EC50 [2] of 0.0602 µg/mL, a Kd [1] of 3.4 nM and a Kd [3] of 0.5 nM.
